What all share (details): both partners purified
Assay [1] concerns the target T1, R411A-α2 (E. coli class Ia ribonucleotide reductase subunit α2 with the R411A substitution) (E. coli, UniProt P00452 1-761, R411A).
T1 construct: Ribonucleoside-diphosphate reductase 1 subunit alpha (α, NrdA), E. coli; GCG (Ala) inserted at position 411; the construct has an N-terminal (His)6-tag with a 10 amino acid linker; Homodimer (α2); source: E. coli, expressed from pET28a-nrdA, purified by previous protocols; pre-reduced with 30 mM DTT and 15 mM HU before use
T1 sequence: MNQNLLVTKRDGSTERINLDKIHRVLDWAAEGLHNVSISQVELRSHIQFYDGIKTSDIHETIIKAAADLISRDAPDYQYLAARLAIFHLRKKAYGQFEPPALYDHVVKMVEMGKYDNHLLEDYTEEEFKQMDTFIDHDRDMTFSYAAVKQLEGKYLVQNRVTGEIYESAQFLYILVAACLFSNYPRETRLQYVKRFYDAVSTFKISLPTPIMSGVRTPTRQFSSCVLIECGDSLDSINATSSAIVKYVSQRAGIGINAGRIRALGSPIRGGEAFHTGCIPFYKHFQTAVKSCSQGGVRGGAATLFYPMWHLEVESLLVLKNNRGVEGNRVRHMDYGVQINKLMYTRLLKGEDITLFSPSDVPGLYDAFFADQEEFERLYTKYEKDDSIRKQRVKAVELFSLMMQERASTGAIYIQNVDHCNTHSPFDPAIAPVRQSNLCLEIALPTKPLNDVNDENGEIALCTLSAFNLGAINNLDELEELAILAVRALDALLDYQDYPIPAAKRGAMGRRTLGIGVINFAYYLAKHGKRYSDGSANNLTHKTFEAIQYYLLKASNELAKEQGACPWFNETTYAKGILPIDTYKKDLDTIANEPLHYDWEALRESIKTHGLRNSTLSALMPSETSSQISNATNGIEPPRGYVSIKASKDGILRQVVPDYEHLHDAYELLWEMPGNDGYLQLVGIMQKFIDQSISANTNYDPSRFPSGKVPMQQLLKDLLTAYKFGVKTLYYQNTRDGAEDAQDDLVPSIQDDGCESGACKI
Nature of the assay: spectrophotometric competitive inhibition assay (enzyme activity); R411A-α2 used as the inhibitor, 10 nM to 5 μM; D2O assay buffer; relative activities in the presence of inhibitor fit to the standard Kd equation (eq. 1); average of two replicates.

Assay [2] concerns the target T2, R411A-α2, E. coli class Ia ribonucleotide reductase subunit α2 with R411A (E. coli, UniProt P00452 1-761, R411A).
T2 construct: E. coli class Ia ribonucleotide reductase subunit alpha (nrdA) with R411A; a 10 amino acid linker follows the N-terminal (His)6-tag; source: pre-reduced with 30 mM DTT and 15 mM HU before use
T2 sequence (looked up): T1 sequence
Nature of the assay: competitive inhibition assay; Kd for α2 mutant and wt-β2, determined in H2O and D2O buffers by the competitive inhibition assay of ref. 42; details in SI-2, Fig. S2.

Assay [3] addresses T3, NH2Y731/R411A-α2, E. coli class Ia ribonucleotide reductase subunit α2 with 3-aminotyrosine at 731 and R411A (E. coli, UniProt P00452 1-761, R411A, 3-aminotyrosine (NH2Y) at 731 in place of Y731).
T3 construct: E. coli class Ia ribonucleotide reductase subunit alpha (nrdA) with R411A and the unnatural amino acid 3-aminotyrosine incorporated at position 731; a 10 amino acid linker follows the N-terminal (His)6-tag; With β2, CDP and ATP the 3-aminotyrosine at 731 is oxidised to the radical NH2Y731˙ (ND2Y731˙ in D2O); also called ND2Y731˙/R411A-α2; ND2Y731˙/R411A-α; source: pre-reduced with 30 mM DTT and …
T3 sequence (looked up): T1 sequence
The description is as above.

B1: wt-β2 (E. coli class Ia ribonucleotide reductase subunit β2, wild type) (enzyme, UniProt P69924 1-376, looked up)
chain: MAYTTFSQTKNDQLKEPMFFGQPVNVARYDQQKYDIFEKLIEKQLSFFWRPEEVDVSRDRIDYQALPEHEKHIFISNLKYQTLLDSIQGRSPNVALLPLISIPELETWVETWAFSETIHSRSYTHIIRNIVNDPSVVFDDIVTNEQIQKRAEGISSYYDELIEMTSYWHLLGEGTHTVNGKTVTVSLRELKKKLYLCLMSVNALEAIRFYVSFACSFAFAERELMEGNAKIIRLIARDEALHLTGTQHMLNLLRSGADDPEMAEIAEECKQECYDLFVQAAQQEKDWADYLFRDGSMIGLNKDILCQYVEYITNIRMQAVGLDLPFQTRSNPIPWINTWLVSDNVQVAPQEVEVSSYLVGQIDSEVDTDDLSNFQL
modifications: tyrosyl radical at Y122 (1.2 Y•/β2), di-iron cofactor
notes: Ribonucleoside-diphosphate reductase 1 subunit beta (β, NrdB), E. coli, wild type; Y122 is Y123 in P69924); Homodimer (β2); source: expressed and purified by standard protocols (7000 nmol min^-1 mg^-1, 1.2 Y•/β2)
For B1, the Kd (as a rule, the equilibrium constant for the complex coming apart) in assay [1] is 0.9 ± 0.19 µM.

B2: wt-β2, E. coli class Ia ribonucleotide reductase subunit β2 (enzyme, UniProt P69924 1-376, looked up)
chain: B1 chain
modifications: tyrosyl radical at Y122 (1.2 Y˙/β2)
notes: E. coli class Ia ribonucleotide reductase subunit beta, with the di-iron tyrosyl radical cofactor (FeIII2–Y122˙)
In the case of B2, the Kd amounted to 0.94 ± 0.33 µM in assay [2] and 0.008 ± 0.001 µM in assay [3].

These data come from article PMC5968753, “Radical transfer in E. coli ribonucleotide reductase: a NH2Y731/R411A-α mutant unmasks a new conformation of the pathway residue 731† †Electronic supplementary information (ESI) available. See DOI: 10.1039/c5sc03460d” (Chemical Science, 2015).
